The values below come from article PMC6353875, “The EZH2 SANT1 domain is a histone reader providing sensitivity to the modification state of the H4 tail” (Scientific Reports, 2019).

The assay has as its target EZH2 SRM-SANT1 (residues 141–251) (human) (UniProt Q15910). Briefly: NMR titration; 15N-HSQC spectra of 0.05–0.10 mM 15N-EZH2 SRM-SANT1 with increasing concentrations of histone peptide; 25 °C; Kd from normalized CSPs, one-site model accounting for ligand depletion, averaged over significantly perturbed residues.

Chain of EZH2 SRM-SANT1 (residues 141–251) (human) (Q15910 141-251): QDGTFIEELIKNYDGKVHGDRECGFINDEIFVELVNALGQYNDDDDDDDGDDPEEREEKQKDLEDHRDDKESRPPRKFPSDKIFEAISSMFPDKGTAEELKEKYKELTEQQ

Regarding “unmodified histone H4 peptide (residues 1–21) (from UniProt P62805 2-22)”, the Kd is 300 µM.

As a reminder, the Kd is the free concentration of one partner at which half of the binding sites on the other are occupied at equilibrium, for simple one-to-one binding.
